Assays:
[1] = molecular target: LPESG (SEQ ID NO: 38) substrate
[2] = molecular target: T1, LPETG (SEQ ID NO: 32) substrate
T1 chain: LPETG

Abz-LPETGK(Dnp)-CONH2 = molecular target: T2, Abz-LPETGK(Dnp)-CONH2
T2 chain: LPETGK

[3] = molecular target: T3, human CD154 tagged with the LPETG sequence at its C terminus (human, UniProt P29965 1-261); assay: cell-based or functional assay
T3 sequence: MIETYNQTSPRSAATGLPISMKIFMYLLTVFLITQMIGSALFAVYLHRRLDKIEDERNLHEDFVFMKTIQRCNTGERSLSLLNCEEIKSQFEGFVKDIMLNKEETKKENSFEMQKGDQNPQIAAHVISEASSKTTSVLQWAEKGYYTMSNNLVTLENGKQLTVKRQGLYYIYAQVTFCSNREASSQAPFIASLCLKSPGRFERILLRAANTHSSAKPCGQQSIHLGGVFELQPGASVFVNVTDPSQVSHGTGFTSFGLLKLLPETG

Gly-Gly-Gly-COOH (GGG) = molecular target: T4, Gly-Gly-Gly-COOH (GGG)
T4 chain: GGG

B1: Sortase 4S.4 (protein)
chain: QAKPQIPKDKSKVAGYIEIPDADIKELVYPGPATREQLSRGVSFTEENESLDDQNISITGHTSIGRPSYQFTNLRAAKKGSMVYFKVGNETRKYKMTSIRNVKPTAVEVLDEQEGKDEQLTLITCDDYNEETGVWETRKIFVATEVK
[1]
  activity against LPESG: activity against LPESG (SEQ ID NO: 38) comparable to the starting type pentamutant
  altered substrate specificity, LPESG against LPETG, as determined by Kcat/Km (HPLC-based substrate cleavage assay): remarkably altered substrate specificity (>4000-fold, as determined by Kcat/Km)
[2]
  activity against LPETG: completely abrogated activity against LPETG (SEQ ID NO: 32)

B2: optimized variant 4S.12.2 (protein)
chain: QAKPQIPKDKSKVAGYIEIPDADIKEPVYPGPATREQLSRGVSFTEENESLDDQNISITGHTSIGRPNYQFTNLRAAKKGSMVYFKVGNETRKYKMTSIRNVKPTAVEVLDEQEGKDEQLTLITCDDYNEETGVWETRKIFVATEVK
[1]
  activity against LPESG: activity against LPESG (SEQ ID NO: 38) comparable to the starting type pentamutant
[2]
  activity against LPETG: completely abrogated activity against LPETG (SEQ ID NO: 32)

B3: wild type S. aureus sortase A (enzyme)
chain: MQAKPQIPKDKSKVAGYIEIPDADIKEPVYPGPATPEQLNRGVSFAEENESLDDQNISIAGHTFIDRPNYQFTNLKAAKKGSMVYFKVGNETRKYKMTSIRDVKPTDVEVLDEQKGKDKQLTLITCDDYNEKTGVWEKRKIFVATEVKLEHHHHHH
Abz-LPETGK(Dnp)-CONH2
  kcat/Km LPETG: 200 M⁻¹ s⁻¹
[3]
  fluorescence of live HeLa cells labeled with GGGYK-biotin over background without enzyme, flow cytometry: ≤ 2.8 fold

B4: P94R/D160N/D165A/K190E/K196T srtA (protein)
chain: MQAKPQIPKDKSKVAGYIEIPDADIKEPVYPGPATREQLNRGVSFAEENESLDDQNISIAGHTFIDRPNYQFTNLKAAKKGSMVYFKVGNETRKYKMTSIRNVKPTAVEVLDEQKGKDKQLTLITCDDYNEETGVWETRKIFVATEVKLEHHHHHH
Abz-LPETGK(Dnp)-CONH2
  Km LPETG (fit of the one-hour time course, FIG. 16): Km LPETG=245±5 µM
  fold change in KM LPETG compared to the tetramutant: the kcat and KM LPETG were not altered by more than a factor of 1.3-fold
  fold higher kcat/KM LPETG compared with wild type srtA: a 120-fold higher kcat/KM LPETG
  kcat/Km LPETG: 23000 ± 3000 M⁻¹ s⁻¹
Gly-Gly-Gly-COOH (GGG)
  fold higher Km GGG compared with wild type srtA: a 20-fold higher Km GGG
  fold improvement in Km GGG compared to the tetramutant: the Km GGG of this mutant improved by 1.8-fold

B5: P94S/D160N/K196T srtA (enzyme)
chain: MQAKPQIPKDKSKVAGYIEIPDADIKEPVYPGPATSEQLNRGVSFAEENESLDDQNISIAGHTFIDRPNYQFTNLKAAKKGSMVYFKVGNETRKYKMTSIRNVKPTDVEVLDEQKGKDKQLTLITCDDYNEKTGVWETRKIFVATEVKLEHHHHHH
Abz-LPETGK(Dnp)-CONH2
  fold increase in KM LPETG compared to the tetramutant: 3 fold
  kcat/Km LPETG: 8600 ± 1500 M⁻¹ s⁻¹
Gly-Gly-Gly-COOH (GGG)
  fold improvement in Km GGG compared to the tetramutant: a 2.6-fold improvement in Km GGG
[3]
  median fluorescence (streptavidin-AlexaFluor594) of live HeLa cells labeled with GGGYK-biotin, flow cytometry: ≥ 30 fold

B6: srtA D160N (protein)
chain: MQAKPQIPKDKSKVAGYIEIPDADIKEPVYPGPATPEQLNRGVSFAEENESLDDQNISIAGHTFIDRPNYQFTNLKAAKKGSMVYFKVGNETRKYKMTSIRNVKPTDVEVLDEQKGKDKQLTLITCDDYNEKTGVWEKRKIFVATEVKLEHHHHHH
Abz-LPETGK(Dnp)-CONH2
  kcat/Km LPETG: 600 M⁻¹ s⁻¹

B7: P94S/D160N/D165A sortase A (protein)
chain: MQAKPQIPKDKSKVAGYIEIPDADIKEPVYPGPATSEQLNRGVSFAEENESLDDQNISIAGHTFIDRPNYQFTNLKAAKKGSMVYFKVGNETRKYKMTSIRNVKPTAVEVLDEQKGKDKQLTLITCDDYNEKTGVWEKRKIFVATEVKLEHHHHHH
Abz-LPETGK(Dnp)-CONH2
  fold change in KM LPETG compared to the tetramutant: KM LPETG were not altered by more than a factor of 3-fold
  kcat/Km LPETG: 7500 ± 300 M⁻¹ s⁻¹
Gly-Gly-Gly-COOH (GGG)
  fold improvement in Km GGG compared to the tetramutant: the Km GGG of this mutant improved by 2.7-fold

B8: D160N/K190E/K196T (clone 4.2) (protein)
chain: MQAKPQIPKDKSKVAGYIEIPDADIKEPVYPGPATPEQLNRGVSFAEENESLDDQNISIAGHTFIDRPNYQFTNLKAAKKGSMVYFKVGNETRKYKMTSIRNVKPTDVEVLDEQKGKDKQLTLITCDDYNEETGVWETRKIFVATEVKLEHHHHHH
Abz-LPETGK(Dnp)-CONH2
  fold enhancement in catalytic efficiency compared to wild type: an approximately 15-fold enhancement in catalytic efficiency at using the LPETG (SEQ ID NO: 32) substrate
  fold reduction in Km LPETG compared to wild type: a 5-7-fold reduction in Km LPETG
  kcat/Km LPETG: 2400 ± 700 M⁻¹ s⁻¹

B9: P94S/D160N/D165A/K196T sortase A (protein)
chain: MQAKPQIPKDKSKVAGYIEIPDADIKEPVYPGPATSEQLNRGVSFAEENESLDDQNISIAGHTFIDRPNYQFTNLKAAKKGSMVYFKVGNETRKYKMTSIRNVKPTAVEVLDEQKGKDKQLTLITCDDYNEKTGVWETRKIFVATEVKLEHHHHHH
Abz-LPETGK(Dnp)-CONH2
  fold decrease in KM LPETG compared to wild type: The 50-fold decrease in KM LPETG of the tetramutant compared to wild type
  fold improved LPETG recognition compared to wild type: 45-fold improved LPETG (SEQ ID NO: 32) recognition
  fold improvement in kcat/Km LPETG compared to wild type: a 140-fold improvement in its ability to convert LPETG (SEQ ID NO: 32) (kcat/Km LPETG)
  kcat/Km LPETG: 28000 ± 7000 M⁻¹ s⁻¹
Gly-Gly-Gly-COOH (GGG)
  fold increase in Km GGG compared to wild type: a 30-fold increase in Km GGG for the sortase A tetramutant

B10: srtA K196T (protein)
chain: MQAKPQIPKDKSKVAGYIEIPDADIKEPVYPGPATPEQLNRGVSFAEENESLDDQNISIAGHTFIDRPNYQFTNLKAAKKGSMVYFKVGNETRKYKMTSIRDVKPTDVEVLDEQKGKDKQLTLITCDDYNEKTGVWETRKIFVATEVKLEHHHHHH
Abz-LPETGK(Dnp)-CONH2
  kcat/Km LPETG: 400 M⁻¹ s⁻¹

B11: P94S/D165A (clone 4.3) (protein)
chain: MQAKPQIPKDKSKVAGYIEIPDADIKEPVYPGPATSEQLNRGVSFAEENESLDDQNISIAGHTFIDRPNYQFTNLKAAKKGSMVYFKVGNETRKYKMTSIRDVKPTAVEVLDEQKGKDKQLTLITCDDYNEKTGVWEKRKIFVATEVKLEHHHHHH
Abz-LPETGK(Dnp)-CONH2
  fold enhancement in catalytic efficiency compared to wild type: an approximately 15-fold enhancement in catalytic efficiency at using the LPETG (SEQ ID NO: 32) substrate
  fold reduction in Km LPETG compared to wild type: a 5-7-fold reduction in Km LPETG
  kcat/Km LPETG: 2600 ± 100 M⁻¹ s⁻¹

B12: srtA D165A (protein)
chain: MQAKPQIPKDKSKVAGYIEIPDADIKEPVYPGPATPEQLNRGVSFAEENESLDDQNISIAGHTFIDRPNYQFTNLKAAKKGSMVYFKVGNETRKYKMTSIRDVKPTAVEVLDEQKGKDKQLTLITCDDYNEKTGVWEKRKIFVATEVKLEHHHHHH
Abz-LPETGK(Dnp)-CONH2
  kcat/Km LPETG: 700 M⁻¹ s⁻¹

B13: srtA P94S (protein)
chain: MQAKPQIPKDKSKVAGYIEIPDADIKEPVYPGPATSEQLNRGVSFAEENESLDDQNISIAGHTFIDRPNYQFTNLKAAKKGSMVYFKVGNETRKYKMTSIRDVKPTDVEVLDEQKGKDKQLTLITCDDYNEKTGVWEKRKIFVATEVKLEHHHHHH
Abz-LPETGK(Dnp)-CONH2
  kcat/Km LPETG: 600 M⁻¹ s⁻¹
